Source: paper PMC4072508, “Genome-Wide Prediction and Validation of Peptides That Bind Human Prosurvival Bcl-2 Proteins” (PLoS Computational Biology, 2014)

T1: Mcl-1, Q07820
T1 chain: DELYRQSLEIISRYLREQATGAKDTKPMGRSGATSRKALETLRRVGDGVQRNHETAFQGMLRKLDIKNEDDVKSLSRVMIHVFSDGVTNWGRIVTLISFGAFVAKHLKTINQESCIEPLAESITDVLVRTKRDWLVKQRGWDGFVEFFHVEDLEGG


Molecular target: T1, Mcl-1, Q07820
Assay: peptide SPOT array, c-Myc-tagged receptor at 1 uM or 100 nM, anti-c-Myc-Cy3

Binder	SPOT signal as a fraction of Bim BH3's signal on the same receptor and array
VPARAPAVDLLEEAADLLVVHLDFRA [PEX26]	0.02
KGAKSESAESLRQWAQELEENLNELT [APOL4]	0.01
LPGRPGLAALLGRLSDRLGRNRDRQR [PGS1]	0.24
TGVNGEISYSLFQASDEISKTFKVDF [PCDHB8]	0.02
PFNKEELTAILKFGAEDLFKELEGEE [CHD2]	0.01
EPTMKTLSDDLDEAAKEFQEKHKKEV [NAT10]	0.01
SPVPPVVHLTLRQAGDDFSRRYRRDF [BCL2]	0.26
LFKAADSSRSIYEVAMQLLQILEPKM [FRYL]	0.02
EEVFQSLSKILDVASLEVLNEVNRRS [GCN1L1]	0.14
HPEHFVCAFCLTQLSKGIFREQNDKT [LPXN]	0.03
LWAAQRYGRELRRMSDEFVDSFKKGL [BAD]	0.53
DPLNDNVATLLHQSSDRFVAELWKDV [MYH10]	0.02
PFNKEELSAILKFGAEELFKEPEGEE [CHD1]	0.02
DRYEGFCVDMLKELAEILRFNYKIRL [GRIK4]	0.03
FSDCLMVVQFLRNFGKVLGFDVNIDV [BAZ2B]	0.02
QPHTGKLCWFLDEAAARLLTVPFEKH [PGLS]	0.02
AELEVECATQLRRFGDKLNFRQKLLN [PMAIP1]	0.85
DVTHSKAVEALKEAGSIVRLYVKRRK [DLG1]	0.13

Binder	SPOT signal as a fraction of Bim BH3's signal on the same receptor and array
QVQNIKLAGSLQHVAEKLCRELYNKA [CLEC1A]	0.11
GKDHPAVAATLNNLAVLYGKRGKYKE [KLC1]	0.22
EAGNMAAVGRLQAVSRRLFAELENER [KIAA1751]	0.02
ANLEISYAKGLQKLASKLSKALQNTR [NOSTRIN]	0.22
KRAAEMMASLLKDLAEIGIAVGNNDV [KIF5B]	0.02
AEVELEYSRGLEKLAERFSSRGGRLG [ARHGAP4]	0.02
ERMKGTFCIALEKFSKAIYKYVNHWR [HEATR7B2]	0.37
DRFEGYCIDLLRELSTILGFTYEIRL [GRIK2]	0.02
SGEFARICRDDSHIGDAVVISCAKDG [PCNA]	0.01
TESGSFVANLLKDLGLEIGELAVRGA [PCDHB2]	0.02
DFITALPARGLDHIAENILSYLDAKS [BTRC]	0.02
SKSKIHAARSLSEIAIDLTETGTLKT [FRMD4A]	0.02
GSKSDPLCVLLQDVGGGSWAELGRTE [CPNE1]	0.02
LGKRTGTVQVLKRSGRELIENSRDDT [MACF1]	0.05
IFNGSNWIMLIYKGGDEYDNHCGKEQ [M6PR]	0.02
AIDAIFLTTTLQNISEDVLAVMDNKN [CKAP5]	0.02
KYFLQNFSCFLEETADEWAEKMPKGP [EFCAB6]	0.03

Second part, the binder after the results:

SPOT signal as a fraction of Bim BH3's signal on the same receptor and array	Binder
0.04	SVLRKALHDSLHDCSHWFYTRWKDWE [ZRANB1]
0.11	TWEIECTSEMLKKLSSKVMTKVIKKK [TRANK1]
0.02	CRREPGLAETLRDAAHLGLLECQFQF [WNT9B]
0.01	SSEEITVAGNLEKSAERSTQGLKFHL [RSC1A1]
0.02	LDDSVEVIKALKNGGAHLDFRAKDGM [SHANK2]
0.15	RTVESEAASYLDQISRYYITRAKLVS [PSME3]
0.02	QATHDQAVQALKRAGKEVLLEVKFIR [SNTB2]
0.11	AAPEGDWARLLEQMGALAVRGSRRER [ZBED3]
0.01	NATHEEVVHLLRNALDEVTITVEYLR [SNTG2]
0.02	AKTSQTVATFLDELAQKLKPLGEQER [THOP1]
0.01	TRELQELARKLQELLDASENLLTENT [TXNDC11]
0.07	AEIELEYSRSLEKLAERFSSKIRSSR [SRGAP3]
0.02	RGPEAPGGRALRDAAENLFQELQEHF [PRR20C]
0.12	QISTRLPSDYIYGIGEQVHKRFRHDL [SI]
0.02	IVIDCSAIQFLDTAGIHTLKEVRRDY [SLC26A2]
0.06	AKYLSGIAHFLEKLAFSSTARFDSKD [PMPCA]
0.02	FDRAVVLSHYIHNLSSEMFSEFDKRY [PRL]
0.01	PASTDAVSALLEQTAVELEKRQEGRS [WWC1]
0.02	LELVSGSIGVLKNMSQRIGGELEEQA [STX6]
